Our source for the self-cleavage values is the RNAGym collection of RNA variant scans (doi:10.1093/nar/gkz1192).

B1: CPEB3 Ribozyme (parent)
chain: UAACAGGGGGCCACAGCAGAAGCGUUCACGUCGCAGCCCCUGUCAGAUUCUGGUGAAUCUGCGAAUUCUGCUGUAUAUCUC

In the data set the parent is B1. Put plainly: self-cleavage, relative activity (ratio to wild type); higher = more cleavage; in vitro, sequencing. The essentials: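 After error-prone PCR and barcoding, CPEB3 ribozyme mutant libraries were transcribed with T7 RNA polymerase at 37°C for 5 hours, then given 15 min with DNase I before an EDTA stop, and they cleaved during both steps. Reverse transcription with template switching preceded Illumina sequencing. Relative activity divides a variant's cleaved/total read fraction by the unmutated ribozyme's. At least 5 reads were required per variant, and three batches were averaged.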
Take U51G U69C: the self-cleavage was 0.62.

In the case of U51G U69G, the self-cleavage worked out at 0.49.

On to C50A, for which the self-cleavage is 0.88.

Take C50U: the self-cleavage is 1.01.

In the case of C50G, the self-cleavage was 0.8.

Take U51G U66C: the self-cleavage worked out at 0.21.

Consider C50U U58C, for which the self-cleavage came out at 0.35.

As to U51G A65G, the self-cleavage came to 0.72.

Take U51C U54A: the self-cleavage is 1.03.

Consider U51C U54C, for which the self-cleavage is 1.07.

Turning to U51C U54G, the self-cleavage was 0.82.

Turning to C50U U72A, the self-cleavage turned out to be 0.28.

Turning to C50U U72C, the self-cleavage is 1.13.

Consider U51C A56U, for which the self-cleavage amounted to 0.74.

With U51C A56C, the self-cleavage was determined as 0.31.

For the variant U51C A56G, the self-cleavage came out at 0.84.

For the variant C50A U67C, the self-cleavage worked out at 0.2.

With C50A U67A, the self-cleavage was determined as 0.38.

In the case of U49C G52A, the self-cleavage is 0.8.

As to U49G C81U, the self-cleavage was found to be 0.77.

For the variant C50A U78C, the self-cleavage is 0.71.

Consider C50A U78G, for which the self-cleavage was 1.06.

With C50A U54C, the self-cleavage came out at 0.83.

Consider C50A U54A, for which the self-cleavage worked out at 0.88.

For the variant U51G C62U, the self-cleavage came out at 0.24.

As for C50U A64G, the self-cleavage is 0.99.

C50U A64U: the self-cleavage worked out at 0.52.

For the variant U49C U60G, the self-cleavage stood at 0.13.

As for U49C U60C, the self-cleavage came to 0.22.

Regarding U49C U60A, the self-cleavage is 0.22.

Regarding U51C C68G, the self-cleavage is 0.69.

With U51C C68U, the self-cleavage was determined as 1.14.

Turning to U51A A77U, the self-cleavage was determined as 1.03.

Take U51A A77G: the self-cleavage was 0.93.

Turning to U49G U69C, the self-cleavage was found to be 0.21.

With U49G U69A, the self-cleavage stood at 0.36.

As for G52A A56G, the self-cleavage stood at 1.19.

In the case of G52A A56U, the self-cleavage turned out to be 1.14.

U51G A56G: the self-cleavage was 0.65.

Turning to U51G A56U, the self-cleavage amounted to 0.52.

Take U51G A56C: the self-cleavage worked out at 0.55.

With U51G U58C, the self-cleavage is 0.37.

For U51A G73A, the self-cleavage amounted to 1.15.

Turning to U51A U69A, the self-cleavage turned out to be 0.64.

For the variant U51A U69C, the self-cleavage turned out to be 0.67.

Consider U51G A75G, for which the self-cleavage worked out at 0.89.

Take U51G A75U: the self-cleavage is 1.22.

Consider U51G G63A, for which the self-cleavage is 0.98.

For the variant U51G G63U, the self-cleavage was 1.1.

For the variant U51C U76C, the self-cleavage was determined as 1.07.

U51C U76A: the self-cleavage came out at 1.21.

U51C U76G: the self-cleavage came to 1.16.

U51A C81A: the self-cleavage came out at 1.1.

On to U51G G53C, for which the self-cleavage came out at 1.19.

As for U51C G70A, the self-cleavage was found to be 0.47.

Consider U51G U78C, for which the self-cleavage was 0.97.

Take U49G U78C: the self-cleavage was found to be 0.43.

On to U51C U58A, for which the self-cleavage is 0.25.

In the case of U51C U58C, the self-cleavage was 0.37.

Take U51G U60A: the self-cleavage came to 0.78.

Take U51G U60C: the self-cleavage was found to be 0.39.

Regarding U51A G53A, the self-cleavage is 1.27.

With U51G A57G, the self-cleavage was 0.74.

In the case of C50U U76A, the self-cleavage was determined as 0.94.

C50U U76C: the self-cleavage is 0.98.

For U51A U72A, the self-cleavage was 0.69.

On to U51A U72G, for which the self-cleavage came out at 0.91.

Turning to U51A U72C, the self-cleavage is 1.15.

Regarding C50U U54G, the self-cleavage is 0.74.

Consider C50U U54C, for which the self-cleavage amounted to 0.77.

Take U51C G63U: the self-cleavage was found to be 1.07.

As to U51C G63A, the self-cleavage was determined as 0.61.

For the variant U51A C71U, the self-cleavage is 0.73.

Consider U51C G73A, for which the self-cleavage was found to be 1.24.

U49C G73A: the self-cleavage amounted to 0.73.

Regarding U49C G73U, the self-cleavage turned out to be 0.77.

U51C U66C: the self-cleavage is 0.49.

On to U51C U66A, for which the self-cleavage is 0.65.

As for U49C U54A, the self-cleavage was determined as 0.42.

For U49C U54C, the self-cleavage came to 0.38.

With U49C U54G, the self-cleavage was found to be 0.25.

For C50A U72C, the self-cleavage turned out to be 0.86.

For the variant C50U U78C, the self-cleavage turned out to be 0.97.

Regarding C50U U78A, the self-cleavage stood at 1.12.

Turning to U49G U67C, the self-cleavage worked out at 0.31.

Turning to U49C U58A, the self-cleavage was 0.14.

Consider U49C U58C, for which the self-cleavage is 0.24.

With U49C G55U, the self-cleavage amounted to 0.24.

Regarding U49C G55A, the self-cleavage was 0.18.

As to U49C U67G, the self-cleavage is 0.32.

On to U49C U67A, for which the self-cleavage amounted to 0.28.

Take U49C U67C: the self-cleavage was 0.23.

For the variant U51G G61A, the self-cleavage amounted to 0.45.

Regarding U51C G55A, the self-cleavage stood at 0.75.

Turning to U51C G55U, the self-cleavage came out at 0.73.

With C50A A56G, the self-cleavage worked out at 0.43.

As to C50A U76A, the self-cleavage came out at 0.65.

Turning to C50A U76C, the self-cleavage stood at 1.02.

With C50G U51C, the self-cleavage came to 0.68.

For U49C C59U, the self-cleavage amounted to 0.09.

Turning to U49C C59A, the self-cleavage turned out to be 0.09.

Turning to U49C U69A, the self-cleavage was found to be 0.25.

Regarding U49C U69C, the self-cleavage is 0.31.

On to U49C U69G, for which the self-cleavage is 0.25.

In the case of C50A G73A, the self-cleavage came out at 1.24.

Turning to U51A U54C, the self-cleavage came to 1.07.

Consider U51A U54A, for which the self-cleavage was determined as 1.04.

On to U51A U54G, for which the self-cleavage came to 0.43.

As to U49G U54C, the self-cleavage was found to be 0.44.

As to G52A U54A, the self-cleavage came to 1.16.

G52A U54C: the self-cleavage was 1.09.

In the case of C50A A57U, the self-cleavage is 0.22.

As for U51C U78C, the self-cleavage stood at 0.99.

For the variant U51C U78A, the self-cleavage came to 1.02.

For U51C A75G, the self-cleavage was 1.01.

Turning to U51C A75U, the self-cleavage worked out at 0.98.

Take U51C A75C: the self-cleavage stood at 1.21.

Regarding U51G C81A, the self-cleavage was found to be 1.25.

In the case of C50U U67C, the self-cleavage was found to be 0.31.

In the case of U49G C79U, the self-cleavage turned out to be 0.77.

Turning to U51C C62A, the self-cleavage was 0.31.

In the case of U51C C62G, the self-cleavage came out at 0.39.

With U51C C62U, the self-cleavage was determined as 0.31.

With U51C A77G, the self-cleavage was 1.08.

For U51C A77U, the self-cleavage turned out to be 0.95.

For the variant U51C A77C, the self-cleavage was determined as 0.98.

Regarding U51A U58A, the self-cleavage is 0.3.

Regarding U51A U58C, the self-cleavage was 0.54.

In the case of U51G U54C, the self-cleavage turned out to be 1.06.

As to U51G U54G, the self-cleavage is 0.24.

On to U51G U54A, for which the self-cleavage stood at 1.28.

Regarding C50A A77U, the self-cleavage was 0.67.

For G52A A64G, the self-cleavage was 1.03.

In the case of C50G U72A, the self-cleavage came to 0.58.

As to C50G U72C, the self-cleavage came out at 0.75.

With U51C U72G, the self-cleavage was 0.88.

With U51C U72A, the self-cleavage is 0.75.

In the case of U51C U72C, the self-cleavage was 1.01.

Turning to U49G U72C, the self-cleavage turned out to be 0.72.

As to U49C U74C, the self-cleavage amounted to 0.65.

Take U49C U74A: the self-cleavage was found to be 0.71.

For the variant U49C U74G, the self-cleavage came to 0.59.

In the case of U51C A65U, the self-cleavage was 0.27.

U51C A65G: the self-cleavage is 0.56.

Take U51A G70A: the self-cleavage was 0.61.

As to U49C G53C, the self-cleavage came out at 0.44.

Turning to U49C G53A, the self-cleavage was 0.52.

As for U51C U74C, the self-cleavage came out at 1.21.

As to U51C U74G, the self-cleavage worked out at 1.21.

With U51C U74A, the self-cleavage stood at 1.3.

As to U51A U76A, the self-cleavage was 1.09.

U51A U76C: the self-cleavage came to 1.11.

Regarding U51A U76G, the self-cleavage was determined as 1.09.

In the case of U49C U66G, the self-cleavage was 0.29.

For the variant U49C U66A, the self-cleavage came out at 0.31.

Take U49C U66C: the self-cleavage turned out to be 0.25.

As to U51C G53U, the self-cleavage turned out to be 1.2.

As to U51C G53A, the self-cleavage turned out to be 1.18.

Turning to U51C G53C, the self-cleavage is 1.01.

U49C C71G: the self-cleavage amounted to 0.19.

Consider U49C C71A, for which the self-cleavage was 0.17.

Take U49C C71U: the self-cleavage is 0.23.

Turning to U51G C68A, the self-cleavage is 0.45.

As to C50G U69C, the self-cleavage amounted to 0.14.

As to C50G U69A, the self-cleavage stood at 0.17.

On to C50U C79U, for which the self-cleavage is 1.16.

As to C50U G63U, the self-cleavage turned out to be 0.82.
